Experiments:
BSA [1] = target: T1, BSA (Bos taurus, UniProt P02769); assay: Blocking of free carboxyl groups on BSA before AMC labeling (SDS-PAGE, native gels, gel fluorescence); set-up: species or system bovine; settings: 50 mg BSA, 1 h
T1 construct: purchased thermo-Fisher BP1605-100
Method: FIG. 2. […] Values are means±SE, n=3. […] Values are means±SE, n=3. […] A silver stain was later performed. (D) N-(3-Dimethylamineopropyl)-N′-ethylcarbodiimide (1 ng/ml to 100 μg/ml) which blocks free carboxyl groups, was incubated with 50 mg of BSA for 1 hr. BSA was extensively dialyzed then prepared as in panel (C). Increasing concentrations of N-(3-Dimethylamineopropyl)-N′-ethylcarbodiimide, caused a progressive decrease in BSA's electrophoretic mobility, and loss of fluorescence at 66 kDa; a representative gel is shown to the left of the panel, and fluorescence is quantified in the graph to the right; […]
For SDS Page gels, samples were mixed with 25% Nupage loading Dye (Invitrogen, Carlsbad, Calif., USA, catalogue#NP0007) containing 5% 2-mercaptoethanol, Samples were boiled for 3 minutes then added to a 12% Tris-glycine SDS page gel. […] In experiments where gel fluorescence was analyzed, gels were placed in a chamber and exposed to an excitation wavelength of 365 nm. […]

BSA [2] = target: T1, BSA; assay: Blocking of exposed amine groups on BSA before AMC labeling; set-up: species or system bovine; settings: 0.5-50 mM
Description: (§1) In some experiments samples were pre-treated with either N-(3-Dimethylaminopropyl)-N′-ethylcarbodiimide hydrochloride (Sigma-Aldrich, MO, USA, catalogue#E6383-1G) to block free protein carboxyl groups, with sulfo-N-hydroxysulfosuccinimide-acetate (Pierce, Rockford, Ill., USA, catalogue #26777) to block free protein amino groups, or with tryptamine (Sigma-Aldrich, MO, USA, catalogue#193747-10G) to disrupt potential non-covalent interactions in protein hydrophobic pockets.
To test whether exposed amine groups on the protein might react with the carboxyl group on the fluorophore, we used 0.5-50 mM sulfo-NHS-acetate was used to block exposed amine groups on BSA. […] This implies that the complex formed between AMC and BSA is independent of exposed protein amine groups.

BSA [3] = target: T1, BSA; assay: Tryptamine competition for non-covalent AMC binding sites on BSA; set-up: species or system bovine; settings: 100 fold excess
Description: as §1
Another possibility was that AMC might be sequestered in protein hydrophobic pockets by non-covalent interactions. […] The ability of the BSA/AMC complex to function as a substrate for proteolysis was also tested.

Trypsin = assay: Proteolysis of AMC-labeled proteins by trypsin, fluorescence assay (AMC release); type: biochemical; settings: for substrate for proteolysis by trypsin, release of fluorescent AMC: AMC-labeled protein 10 μg/ml, 10 μM trypsin
Method: FIG. 3. Proteolysis of AMC-labeled Proteins by Trypsin. […] Values are means±SE's, n=3. […] All assay conditions (including trypsin concentration) were identical to those in A, and each substrate protein was used at a final concentration of 10 μg/ml. […] Values are means±SE's, n=3;
FIG. 4. Protease and Substrate Titration, and Particle Size of Proteolytic Degradation Products. […] Values are means±SE's, n=4, for which the fluorescence of controls was subtracted. […] Background fluorescence or radioactivity were measured in the absence of protease (proteolysis buffer alone), and proteolysis was measured by increased fluorescence or acid-soluble radioactivity after incubation with either 10 μM Trypsin, 1 μg/ml purified 20S proteosome, or 150 μg/ml MEF cell lysate. Percent degradation of Hb-AMC is reported as the percentage of total fluorescence that could be released from Hb-AMC after exhaustive proteolytic digestion (not shown), whereas percent degradation of [3H]Hb is reported as the percent of total (initial) radioactive counts released into TCA-soluble form by proteolysis. All values are means±SE's, n=3;

purified 20S proteasome = target: T2, purified 20S proteasome (Homo sapiens, UniProt P28072+P28074+Q99436); assay: Degradation of native and oxidized AMC-labeled proteins by purified 20S proteasome; type: biochemical; settings: for increase in susceptibility to proteasomal degradation: following mild oxidation with H2O2 (1.0 mM); for substrate for the purified proteasome: unoxidized form
T2 construct: purchased Biomol PW8720-0050
Method: (§2) FIG. 7. Proteolytic Susceptibility of Modified AMC-labeled Proteins. (A) The capacity of 20S proteasome to degrade both the native and oxidized forms of Hb-AMC and BSA-AMC was measured. For both assays, 1 μg/ml of purified 20S proteasome was combined with 10 μg/ml of Hb-AMC, Hbox-AMC, BSA-AMC, or BSAox-AMC and incubated for 4 hr at 37° C. Protein degradation was then measured as per FIG. 4. Hbox-AMC, and BSAox were prepared by treating Hb-AMC and BSA-AMC with 1.0 mM H2O2 followed by extensive dialysis. (B) The Capacity of MEF cell lysates to degrade various modified forms of Hb-AMC was measured. Hb-AMC was modified by incubation with dilute HCl at pH 4, 10% 2-mercaptoethanol, 70% methanol, 1 mM peroxynitrite, or 1 mM H2O2, or was boiled at 100° C. for 60 minutes, or subjected to freeze-thawing at −80° C. The substrates were then extensively dialyzed and incubated with 150 μg/ml of MEF cell lysates for 4 hr. In both panels, values are means±SE's, n=3.

MEF cell lysates = assay: Degradation of modified Hb-AMC by MEF cell lysates; type: biochemical, murine; settings: oxidative modification by H2O2 or peroxynitrite
Method: as §2, with “In both panels, values are means±SE's, n=3.” left out
Murine embryonic fibroblasts (MEF) from ATCC (Manassas, Va., USA, catalogue CRL-2214) were grown in Dulbecco's Modified Eagle's Medium (DMEM, Mediatech, Manassas, Va., catalogue #10-013-CV) supplemented with 10% Fetal Bovine Serum (Hyclone, Logan, Utah, catalog #SH30070.03). […] The lysates were then centrifuged at 10,000 g for 10 minutes, after which the supernatants were retained (the pellets discarded) and protein content was determined by BCA assay.

[4] = pH stability of the Hb-AMC complex; type: physicochemical; settings: pH 1-12, 4 hr, read after readjusting to pH 7.8
Method: The stability of protein-AMC adducts over the same broad range of pH was determined. […] The viability of protein-AMC complexes as substrates for proteases was tested with widely different pH optima.

[5] = Stability of Hb-AMC after frozen storage or denaturation (background release of free AMC); type: physicochemical
Method: FIG. 5. Stability of AMC-labeled Hemoglobin After Frozen Storage or Denaturation. (A) Hb-AMC was stored at −20° C. for up to 21 weeks. […] Release of free AMC from the Hb-AMC complex (background fluorescence) was then measured in comparison with control (untreated Hb-AMC). In all three panels, values are means±SE's, n=3;
The stability of AMC-labeled substrates, the resistance of the AMC-protein linkage to various treatments, and the reproducibility of proteolytic assays after prolonged storage are important concerns in weighing the usefulness of the technique of various embodiments of the present invention.
Embodiments of the present invention provide a new way to label proteins for studies of oxidation-induced changes in proteolytic susceptibility. In addition to oxidants, proteolytic substrates are often subjected to various other modifying or denaturing conditions, to test for effects on proteolytic susceptibility, therefore it is important to test the stability of AMC-labeled substrates over a range of harsh conditions.

pepsin = pepsin (Sus scrofa, UniProt P00791); assay: Proteolysis of Hb-AMC by pepsin (AMC release); settings: pH 2, 4 hr at 37° C.
pepsin, sequence (P00791 60-385): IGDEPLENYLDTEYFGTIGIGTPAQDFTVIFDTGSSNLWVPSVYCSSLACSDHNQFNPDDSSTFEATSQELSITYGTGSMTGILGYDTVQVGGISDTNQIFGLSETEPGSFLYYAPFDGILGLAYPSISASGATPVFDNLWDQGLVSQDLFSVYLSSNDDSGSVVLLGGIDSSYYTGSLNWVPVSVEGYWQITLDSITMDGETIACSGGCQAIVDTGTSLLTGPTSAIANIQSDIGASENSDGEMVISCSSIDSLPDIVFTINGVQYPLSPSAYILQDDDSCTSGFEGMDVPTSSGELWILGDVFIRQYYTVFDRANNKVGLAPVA
Method: (§3) In each experiment, pH was adjusted appropriately for the proteinase studied, and samples were incubated at 37° C. for 4 hours.

proteinase K = target: T3, proteinase K (Parengyodontium album, UniProt P06873); assay: Proteolysis of Hb-AMC by proteinase K (AMC release); type: biochemical; settings: pH 11, 4 hr at 37° C.
T3 construct: purchased Oncor S4508
T3 sequence (P06873 106-384): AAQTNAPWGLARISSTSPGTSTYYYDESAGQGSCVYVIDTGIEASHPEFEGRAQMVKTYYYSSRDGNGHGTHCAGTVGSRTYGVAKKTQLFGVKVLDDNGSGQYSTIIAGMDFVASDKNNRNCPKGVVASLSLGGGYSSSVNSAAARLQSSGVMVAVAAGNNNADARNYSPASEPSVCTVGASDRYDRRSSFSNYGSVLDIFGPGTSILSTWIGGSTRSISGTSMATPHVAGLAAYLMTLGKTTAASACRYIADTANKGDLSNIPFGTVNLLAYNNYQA

chymotrypsin = chymotrypsin (Bos taurus, UniProt P00766); assay: Proteolysis of Hb-AMC by chymotrypsin (AMC release); settings: pH 7.8, 4 hr at 37° C.
Method: as §3

[6] = stored at −20° C., repeated trials over 150 days

T1 sequence (P02769 25-607): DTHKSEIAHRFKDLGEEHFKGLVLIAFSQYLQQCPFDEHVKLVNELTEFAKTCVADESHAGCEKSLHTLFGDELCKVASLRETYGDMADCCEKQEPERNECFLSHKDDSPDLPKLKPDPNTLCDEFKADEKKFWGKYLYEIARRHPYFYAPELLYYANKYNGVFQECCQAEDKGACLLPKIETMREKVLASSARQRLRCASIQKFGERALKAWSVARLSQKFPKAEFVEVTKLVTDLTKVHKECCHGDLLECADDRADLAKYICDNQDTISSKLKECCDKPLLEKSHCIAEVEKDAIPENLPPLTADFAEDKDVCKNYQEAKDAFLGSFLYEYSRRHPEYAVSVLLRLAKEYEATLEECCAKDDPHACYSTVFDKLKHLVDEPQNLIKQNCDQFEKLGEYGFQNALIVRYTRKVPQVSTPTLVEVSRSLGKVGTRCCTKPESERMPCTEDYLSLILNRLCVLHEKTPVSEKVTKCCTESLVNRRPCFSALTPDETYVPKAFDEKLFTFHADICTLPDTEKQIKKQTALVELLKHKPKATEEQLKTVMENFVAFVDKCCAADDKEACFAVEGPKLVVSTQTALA

Molecule: CCN=C=NCCCN(C)C.Cl [N-(3-Dimethylaminopropyl)-N′-ethylcarbodiimide hydrochloride]
- protein carboxyl-group blocking, decreased electrophoretic mobility (BSA [1]): dose-dependent protein carboxyl-group blocking
- formation of BSA-AMC adducts, fluorescent band at 66 kDa (BSA [1]; then AMC and NaCNBH3): prevented the formation of BSA-AMC adducts

Molecule: CC(=O)ON1C(=O)CC(S(=O)(=O)O)C1=O (centres unmarked) [sulfo-NHS-acetate, sulfo-N-hydroxysulfosuccinimide-acetate]
- change in the fluorescence of the BSA-AMC complex (BSA [2]): no significant change
- free amine groups on BSA blocked (BSA [2]): 80%

Molecule: NCCc1c[nH]c2ccccc12 [tryptamine]
- association between AMC and BSA blocked (BSA [3]): above 30%
- effect on effectiveness of BSA as a proteolytic substrate (BSA [3]): minimal effects

Molecule: SOD-AMC: AMC-labeled superoxide dismutase
- substrate for proteolysis by trypsin, release of fluorescent AMC (Trypsin): effective and sensitive substrates

Molecule: BSA-AMC: AMC-labeled bovine serum albumin
- substrate for proteolysis by trypsin, release of fluorescent AMC (Trypsin): effective and sensitive substrates
- increase in susceptibility to proteasomal degradation (purified 20S proteasome): four
- substrate for the purified proteasome (purified 20S proteasome): rather poor substrates

Molecule: Hb-AMC: AMC-labeled hemoglobin, made by reductive labeling with AMC and sodium cyanoborohydride
- degradation by MEF cell extracts versus unmodified (control) Hb-AMC (MEF cell lysates): significantly increased
- decrease in stability of the complex [4]: < 0.2%
- stability of the complex to modifying or denaturing conditions ([5]; 1 mM H2O2, 1 mM peroxynitrite, dilute HCl pH 4, 10% 2-mercaptoethanol, freeze-thawing at −80° C., or 50% methanol): almost completely stable
- breakdown of the Hb-AMC complex ([5]; boiling (100° C.) for 60 minutes): 3.1%
- effect of repeated freeze thaw cycles on stability of the complex (background release of free AMC) ([5]; repeated −20° C. freeze-thaw cycles): did not significantly affect the stability
- variation of background AMC release on storage [5, 6]: less than 15%
- substrate for proteolysis (pepsin): excellent substrate
- substrate for proteolysis by trypsin, release of fluorescent AMC (Trypsin): effective and sensitive substrates
- increase in AMC liberation after trypsin digestion (Trypsin; Hb labeled by full procedure with AMC and NaCNBH3): 80 fold
- increase in AMC liberation following incubation with trypsin (Trypsin; Hb reacted with AMC alone, no NaCNBH3): six
- background AMC release relative to Hb reacted with AMC alone (Trypsin; full labeling procedure with NaCNBH3): one-sixth
- substrate for proteolysis (Trypsin; pH 7.8, 4 hr at 37° C.): excellent substrate
- variation of trypsin-induced release of AMC on storage (Trypsin; [6]): less than 15%
- sensitivity of proteolytic measurement versus [3H]Hb (purified 20S proteasome; 1 μg/ml purified 20S proteasome): broadly comparable sensitivity
- increase in susceptibility to proteasomal degradation (purified 20S proteasome): more than 300 fold
- substrate for the purified proteasome (purified 20S proteasome): rather poor substrates
- substrate for proteolysis (proteinase K): excellent substrate
- substrate for proteolysis (chymotrypsin): excellent substrate

B1: catalase: catalase with the AMC fluorophore bound (AMC-labeled catalase) (conjugate, UniProt P00432 2-527, looked up)
Catalase: ADNRDPASDQMKHWKEQRAAQKPDVLTTGGGNPVGDKLNSLTVGPRGPLLVQDVVFTDEMAHFDRERIPERVVHAKGAGAFGYFEVTHDITRYSKAKVFEHIGKRTPIAVRFSTVAGESGSADTVRDPRGFAVKFYTEDGNWDLVGNNTPIFFIRDALLFPSFIHSQKRNPQTHLKDPDMVWDFWSLRPESLHQVSFLFSDRGIPDGHRHMNGYGSHTFKLVNANGEAVYCKFHYKTDQGIKNLSVEDAARLAHEDPDYGLRDLFNAIATGNYPSWTLYIQVMTFSEAEIFPFNPFDLTKVWPHGDYPLIPVGKLVLNRNPVNYFAEVEQLAFDPSNMPPGIEPSPDKMLQGRLFAYPDTHRHRLGPNYLQIPVNCPYRARVANYQRDGPMCMMDNQGGAPNYYPNSFSAPEHQPSALEHRTHFSGDVQRFNSANDDNVTQVRTFYLKVLNEEQRKRLCENIAGHLKDAQLFIQKKAVKNFSDVHPEYGSRIQALLDKYNEEKPKNAVHTYVQHGSHLSAREKANL
modifications: AMC fluorophore label
- substrate for proteolysis by trypsin, release of fluorescent AMC (Trypsin): effective and sensitive substrates
